The record followed here is patent publication US20250042970A1 (AURINIA PHARMACEUTICALS, published 2025).

Positions count from the first letter of the chain named.

B1: BAv49-Ig (Fc fusion)
chain: AGQCSQNEYFDPLIRACIPCQVRCSSNTPPLTCQRYCNAGVTNSVKGTNA
notes: also called BAv49 (3)-Ig; BAv49-pIg18; not shown: PIg18: human IgG2 Fc, Ser at Fc positions 4, 5, 11 (native Cys)
B2: BAv81-Ig (Fc fusion)
chain: B1 chain with I14V
notes: also called BAv81 (2)-Ig; BAv81-pIg18; not shown: PIg18: human IgG2 Fc, Ser at Fc positions 4, 5, 11 (native Cys)
B3: BAv83-Ig (Fc fusion)
chain: B1 chain with I14V, V22I
notes: also called BAv83 (2)-Ig; BAv83-pIg18; not shown: PIg18: human IgG2 Fc, Ser at Fc positions 4, 5, 11 (native Cys)
B4: BAv85-Ig (Fc fusion)
chain: B1 chain with P12H, I14V, V22A
notes: also called BAv85 (2)-Ig; BAv85-pIg18; not shown: PIg18: human IgG2 Fc, Ser at Fc positions 4, 5, 11 (native Cys)
B5: BAv77-Ig (Fc fusion)
chain: B1 chain with P12H, I14V, R23T
notes: not shown: PIg18: human IgG2 Fc, Ser at Fc positions 4, 5, 11 (native Cys)
B6: BAv76-Ig (Fc fusion)
chain: B1 chain with P12H, R23T
notes: as for B5
B7: BAv54-Ig (Fc fusion)
chain: B1 chain with P12H, I14S
notes: as for B5
B8: BAv67-Ig (Fc fusion)
chain: B1 chain with P12S, I14V, I18Q
notes: as for B5
B9: BAv69-Ig (Fc fusion)
chain: B1 chain with P12H, I14V, I18Q, V22L
notes: as for B5
B10: BAv68-Ig (Fc fusion)
chain: B1 chain with P12S, I18Q
notes: as for B5
B11: BAv70-Ig (Fc fusion)
chain: B1 chain with P12H, I18Q, V22L
notes: as for B5

The target in one assay is T1, FLAG-tagged human BAFF (human, UniProt Q9Y275 134-285, limits assumed).
T1 construct: used in BIACORE (Ex. 9) and KINEXA (Ex. 11); also called huBAFF
Briefly: KinExA. As to the method: (§1) Equilibrium measurements were performed using FLAG-tagged, recombinant huBAFF and huAPRIL ligands. Fixed ligand concentrations of human BAFF or human APRIL were incubated with serial dilutions of the variant BCMA ECD-Ig fusion polypeptides, and free ligand was detected in a KINEXA 3200 Instrument. variant BCMA ECD-Ig fusion polypeptides were first diluted in equilibration buffer (1×PBS, pH 7.4, 1 mg/ml BSA) to a range of concentrations from 10 nM to 100 fM. The linear portion of the dilution series was typically 2-fold. Ligands were diluted in equilibration buffer to fixed concentrations ranging from 5 to 20 pM and then incubated with the variant BCMA-Ig dilutions in total reaction volumes ranging from 4.5 to 15 ml. Samples were incubated at room temperature for 48-72 hours to reach equilibrium. For each data point, a fresh column of 850 μl of bead slurry coated with Variant BAv-238475-Ig was introduced into the KINEXA flow cell. Equilibrated samples ranging from 1 to 5 ml reaction volume were injected at a flow rate of 0.25 ml/min. […] The DyLight 649 fluorescent signal was detected using the red filter set (620/30 nanometer excitation filter, 670/40 nanometer emission filter, 645 nanometer dichroic filter) on the KinExA instrument and converted to a voltage signal that was directly proportional to the concentration of free ligand in the equilibrated sample.
(§2) The standard kinetic exclusion assays and data analyses described above were performed on protein preparations of various variant BCMA ECD-Ig fusion polypeptides, as well as Z-TACI-Ig and [S40G]huBCMA ECD-Ig fusion polypeptides. FIG. 8A, FIG. 8B, and Table 4 summarize the binding data for representative variant BCMA ECD-Ig polypeptides and controls in molar concentrations of huBAFF or huAPRIL determined by KINEXA binding assays.
Broadly, the Kd is a measure of binding affinity in units of concentration. With B1, the dissociation constant Kd is 0.842 pM and the “fold improvement over control” value was 268 fold.
For B2, in that order: 0.246 pM and 917 fold.
As for B3, the Kd turned out to be 0.254 pM and the “fold improvement over control” value stood at 890 fold.
On to B4, for which the Kd was 0.0847 pM and the “fold improvement over control” value turned out to be 2660 fold.

The target in a further assay is T2, FLAG-tagged recombinant human APRIL (human, UniProt O75888 105-250).
T2 construct: KINEXA ligand; also called huAPRIL
T2 sequence: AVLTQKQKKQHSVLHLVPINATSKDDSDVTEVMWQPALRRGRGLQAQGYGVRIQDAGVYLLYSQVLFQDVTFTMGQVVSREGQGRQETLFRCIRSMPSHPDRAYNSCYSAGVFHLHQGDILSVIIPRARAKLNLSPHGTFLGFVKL
Briefly: KinExA. How it is done: as §1, §2
Background: In KinExA the mixture passes briefly over coated beads that capture the unbound partner.
With B1, the Kd amounted to 0.313 nM and the “fold improvement over control” value was found to be 0.00051 fold.
As for B2, the Kd came out at 0.364 nM and the “fold improvement over control” value turned out to be 0.00044 fold.
For B3, the Kd came to 0.114 nM and the “fold improvement over control” value worked out at 0.0014 fold.
On to B4, for which the Kd was 0.132 nM and the “fold improvement over control” value was 0.0012 fold.

The target in the next assay is T1, FLAG-tagged human BAFF. In words: KinExA. This is another data set of the same source. How it is done:
as §1
(§3) Table 5 provides the selectivities of exemplary variant BCMA polypeptides with respect to BAFF and APRIL.
Consider B1, for which the “Selectivity for huBAFF (KD APRIL/KD BAFF)” value turned out to be 372 ratio.
For B2, the “Selectivity for huBAFF (KD APRIL/KD BAFF)” value is 1480 ratio.
Still for that read-out and setting: the figure for B3 is 449 ratio; for B4 it is 1560 ratio.

Another assay deals with T2, FLAG-tagged recombinant human APRIL. In words: KinExA. This is another data set of the same source. As to the method: as §1, §3
As for B1, the “Selectivity for huAPRIL (KD BAFF/KD APRIL)” value (“Selectivity for huAPRIL” below) is 0.003 ratio.
As to B2, the “Selectivity for huAPRIL” value turned out to be 0.001 ratio.
Consider B3, for which the “Selectivity for huAPRIL” value is 0.002 ratio.
The same measure, in the same setting: the figure for B4 is 0.001 ratio.

Another assay deals with T1, FLAG-tagged human BAFF. In words: KinExA. This is another data set of the same source. How it is done: as §1
(§4) The various fusion proteins described above were expressed and purified as described previously (Examples 2 and 3 for the CET1019AS based plasmids and Examples 7 and 8 for the pcDNA based plasmids). […] The BAv9-1-Ig Fc proteins typically exist in solution as a dimeric fusion protein. The purified fusion proteins were assayed for binding activity using BIACORE (Example 9) and KINEXA (Example 11) assays.
In the case of B1, the Kd stood at 0.842 pM.
On to B2, for which the Kd amounted to 0.246 pM.
Same read-out and setting: the figure for B3 is 0.254 pM; for B4 it is 0.085 pM.

The target in the next assay is T2, FLAG-tagged recombinant human APRIL. In words: KinExA. This is another data set of the same source. How it is done:
as §1, §4
With B1, the Kd was determined as 0.313 nM.
B2: the Kd came to 0.364 nM.
On the same count and under the same terms, the figure for B3 is 0.114 nM; for B4 it is 0.132 nM.

For the next assay, the target named is T1, FLAG-tagged human BAFF. In words: BIACORE SPR. How it is done: (§5) For human BAFF, cynomolgus monkey APRIL, and mouse APRIL measurements, mouse monoclonal antibody (IgG1) anti-FLAG M2 (Sigma Aldrich, Cat. No. F1804) was immobilized on CM3 sensor chips (GE Healthcare, Cat. No. BR-1005-41) according to the manufacturer's protocol. Antibody was diluted to 30 μg/ml in immobilization buffer (10 mM pH 5±0.20; GE Healthcare; GE Healthcare, Catalog No. BR-1003-51). […] Unreacted sites were quenched with 35 μl of 1M ethanolamine-HCl, pH 8.5 (GE Healthcare, GE Healthcare, Cat. No. BR-1000-50). This procedure typically yielded 3,000-4,000 response units (RU) of coupled antibody.
(§6) The fusion polypeptides were diluted in HBS-EP buffer and flowed over ligand-coated sensor chips. The variant BCMA-Ig and surrogate control fusion proteins were injected at three concentrations (1.5 nM, 15 nM, and 150 nM at 30 μl/min for 2 minutes per association phase) in a single binding cycle, followed by a 20 minute incubation with HBS-EP buffer containing no protein at the same flow rate. A similar protocol was followed for Z-TACI-Ig, except that the injections were at 4.5 nM, 45 nM, and 450 nM.
as §4
Background: In SPR one partner is held on a chip, and binding of the other changes the refractive index at the surface.
The molecule B1 came in with a Kd of 16.2 pM.
On the same count and under the same terms, the figure for B2 is 8.31 pM; for B3 it is 8.09 pM; for B4 it is 8.03 pM.

The target of the next assay is T3, FLAG-tagged cynomolgous APRIL (cynomolgus monkey, UniProt A0ACM8R0G4 110-250 (rhesus entry)).
T3 construct: FLAG-tagged, expressed with TPA signal peptide; also called cyAPRIL
T3 sequence: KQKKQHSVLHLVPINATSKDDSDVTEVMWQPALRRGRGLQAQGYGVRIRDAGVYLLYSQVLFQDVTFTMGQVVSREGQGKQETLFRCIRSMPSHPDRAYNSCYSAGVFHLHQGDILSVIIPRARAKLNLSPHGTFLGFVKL
In words: BIACORE SPR. How it is done:
as §5, §6, §4
As for B1, the Kd worked out at 1.45 nM.
In turn, B2 showed a Kd of 2.06 nM.
B3: the Kd stood at 0.707 nM.
In the case of B4, the dissociation constant (Kd) was found to be 0.773 nM.

The next assay deals with T1, FLAG-tagged human BAFF. Briefly: BIACORE SPR; NB = No binding. As to the method:
as §5, §6
(§7) Using available information from the structures and published literature, several residues in BAv8-10 were targeted for substitution with conserved as well as non-conserved residues and their effect on BAFF and APRIL binding was assessed by BIACORE.
Turning to B5, the binding result was “no binding (tested: 150 nM)”.
Take B6: the binding result is recorded as “no binding (tested: 150 nM)”.
In the case of B7, the binding result was “no binding (tested: 150 nM)”.
On the same count and under the same terms, the entry for B8 is “no binding (tested: 150 nM)”; for B9 it is “no binding (tested: 150 nM)”; for B10 it is “no binding (tested: 150 nM)”.
In the case of B11, the binding result is given as “no binding (tested: 150 nM)”.

A further assay has as its target T3, FLAG-tagged cynomolgous APRIL. Briefly: BIACORE SPR; NB = No binding. As to the method: as §5, §6, §7
On to B5, for which the binding result is listed as “no binding (tested: 150 nM)”.
The same measure, in the same setting: the entry for B6 is “no binding (tested: 150 nM)”.
In the case of B7, the binding result is recorded as “no binding (tested: 150 nM)”.
The same measure, in the same setting: the entry for B8 is “no binding (tested: 150 nM)”; for B9 it is “no binding (tested: 150 nM)”; for B10 it is “no binding (tested: 150 nM)”.
As to B11, the binding result was “no binding (tested: 150 nM)”.
